One test deals with PC9 NSCLC cells. Put plainly: Apoptosis by FACS in PC9 NSCLC cells. The format is cell-based. The settings on record: 5 μg/mL gefitinib alone, 24 hours. As for the experimental part:
(§1) 24 hours later, after treating with 5 μg/mL gefitinib or 5 μg/mL gefitinib and 5 μg/mL 4-1H or EP-10H diluted with 500 μL of RPMI, the cells were cultured again for 24 hours under the condition of 37° C. and 5% CO2. Then, apoptotic cells were analyzed with the FACS analysis equipment Attune N×T using 7-AAD and an FITC annexin V apoptosis detection kit (FIG. 7b).
In general terms: Flow cytometry measures light scatter and fluorescence of single cells or particles in a stream.

The next test relates to PC9-GR cells. Kind of test: Apoptosis by FACS in gefitinib-resistant PC9-GR cells. It is filed as cell-based. The settings on record: 24 hours. Here is the method: as §1
For the next test, the system named is K562 cells. Put plainly: Apoptosis by FACS in K562 cells. The settings on record: 2 μM imatinib alone, 24 hours. It is filed as cell-based. Here is the method: (§2) Immediately thereafter, the cells were treated with 2 μM imatinib or with 2 μM imatinib and 10 μg/mL 4-1H or EP-10H diluted with 500 μL of RPMI, and then cultured under the condition of 37° C. and 5% CO2 for 24 hours. Then, apoptotic cells were analyzed with the FACS analysis equipment Attune N×T using 7-AAD and an FITC annexin V apoptosis detection kit (FIG. 6b).

The next test has as its system K562-IR cells. Kind of test: Apoptosis by FACS in imatinib-resistant K562-IR cells. The format is cell-based. The settings on record: 24 hours. As for the experimental part: as §2
The test system of another test is Ramos-RR cells. Kind of test: CDC / apoptosis by FACS in rituximab-resistant Ramos-RR cells with complement human serum. The format is cell-based. The settings on record: method of Example 10-1.
In the next test the test system is Ramos cells. Put plainly: CDC / apoptosis by FACS in Ramos cells with complement human serum. It is filed as cell-based. The settings on record: rituximab alone, method of Example 10-1.
In test [1] the test system is Burkitt lymphoma BJAB cells. Kind of test: CDC / apoptosis by FACS (annexin V/7-AAD) in BJAB cells with complement human serum. The format is cell-based. The settings on record: 50% complement human serum, 1 hour. From the text:
BJAB cells have complement resistance and this is due to the expression of CD55 (Golay, et al., Blood, 95 (12):3900-8, 2000). For this reason, they show low response to rituximab the main therapeutic mechanism of which is CDC (complement-dependent cytotoxicity). In order to confirm the possibility of improving the therapeutic effect of rituximab for Burkitt lymphoma, which is known as malignant B cell lymphoma, the apoptotic ability of co-administration with EP-10H in Burkitt lymphoma BJAB cells was investigated. For investigation of the effect of co-administration, 5×10^5 BJAB cells were cultured for 1 hour under the condition of 37° C. and 5% CO2 after treating with 100 μL of RPMI supplemented with 50% complement human serum (Sigma, USA), containing 50 μg/mL of 4-1H or EP-10H and 20 μg/mL of rituximab. Then, CDC was observed by identifying apoptotic cells with Attune N×T (ThermoFisher Scientific, USA), which is a FACS analysis equipment, using an FITC annexin V apoptosis detection kit with 7-AAD (BioLegend, USA) (FIG. 4). […] It was confirmed that this effect was more significant for EP-10H having higher affinity for CD55.
The apoptotic ability of the CD20×CD55 bispecific antibody was investigated by the method of Example 10-1. […]

Test [2] deals with T1, CD55 on cells (BJAB, Ramos, Ramos-RR, K562, K562-IR, PC9, PC9-GR) (UniProt P08174 35-353, limits assumed).
T1 construct: whole, on cells; Endogenous CD55 on cell lines used for flow cytometry and cell death assays; also called CD55 receptor
T1 sequence (looked up): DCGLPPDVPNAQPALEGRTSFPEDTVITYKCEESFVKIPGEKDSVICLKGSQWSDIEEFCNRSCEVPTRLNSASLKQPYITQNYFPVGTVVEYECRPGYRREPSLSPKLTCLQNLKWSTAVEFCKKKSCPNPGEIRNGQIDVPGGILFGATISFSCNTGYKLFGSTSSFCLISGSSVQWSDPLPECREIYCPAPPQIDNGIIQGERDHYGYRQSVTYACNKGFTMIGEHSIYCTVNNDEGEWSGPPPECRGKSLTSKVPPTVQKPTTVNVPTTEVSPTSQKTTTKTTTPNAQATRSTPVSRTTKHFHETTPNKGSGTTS
Put plainly: flow cytometry, Ramos and Ramos-RR cells stained with 10 µg/mL EP-10H and anti-human IgG Alexa Fluor 488. Here is the method:
5×10⁵ Ramos or Ramos-RR cells were suspended in PBS containing or not containing 10 μg/mL of the EP-10H monoclonal antibody and cultured at 4° C. for 1 hour. The culture was centrifuged at 4,000 rpm for 5 minutes and centrifuged again at 4,000 rpm for 5 minutes after washing with 100 μL of PBS. After treating the cells with goat anti-human IgG antibody diluted to 1:100 using PBS and Alexa Fluor 488 (ThermoFisher Scientific, USA), they were incubated at 4° C. for 30 minutes in the shade. The fluorescence-stained cells were washed with PBS, suspended in 400 μL of PBS and then analyzed using Attune N×T (ThermoFisher Scientific, USA), which is a FACS analysis equipment.

Test [3] addresses T2, recombinant human CD55 (R&D Systems 2009-CD/CF) (human, UniProt P08174 35-353).
T2 construct: Bought recombinant protein coated on ELISA plates; also called decay-accelerating factor; DAF
T2 sequence (looked up): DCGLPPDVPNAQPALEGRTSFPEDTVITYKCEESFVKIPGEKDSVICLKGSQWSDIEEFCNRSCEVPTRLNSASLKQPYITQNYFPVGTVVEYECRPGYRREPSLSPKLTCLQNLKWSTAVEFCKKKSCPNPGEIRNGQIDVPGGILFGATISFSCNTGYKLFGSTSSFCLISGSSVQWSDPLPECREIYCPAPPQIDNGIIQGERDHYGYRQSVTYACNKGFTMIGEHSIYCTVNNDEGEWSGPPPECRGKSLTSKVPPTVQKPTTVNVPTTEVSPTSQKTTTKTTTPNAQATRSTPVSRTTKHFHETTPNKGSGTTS
Kind of test: indirect ELISA, recombinant human CD55 coated.

Another test concerns the target T3, recombinant human CD55 (Homo sapiens, UniProt P08174).
T3 construct: purchased R&D Systems 2009-CD/CF
T3 sequence (P08174 35-353): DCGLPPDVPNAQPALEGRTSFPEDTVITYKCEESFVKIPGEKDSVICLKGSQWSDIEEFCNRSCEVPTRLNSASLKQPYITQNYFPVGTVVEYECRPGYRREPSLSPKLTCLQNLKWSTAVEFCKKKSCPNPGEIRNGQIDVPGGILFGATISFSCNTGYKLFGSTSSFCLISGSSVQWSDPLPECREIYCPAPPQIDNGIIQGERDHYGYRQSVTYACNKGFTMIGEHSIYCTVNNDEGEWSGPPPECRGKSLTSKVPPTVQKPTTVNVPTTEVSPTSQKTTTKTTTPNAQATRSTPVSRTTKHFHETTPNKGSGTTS
Put plainly: Indirect ELISA, affinity for CD55. The format is binding. The settings on record: full-length antibody 0.0001-10 nM on CD55 coated at 1 μg/mL. As for the experimental part:
(§3) The binding ability of the G4-1H monoclonal antibody prepared in Example 2 for CD55 was investigated by indirect ELISA. For the indirect ELISA, recombinant human CD55 (R&D Systems, USA) diluted to 1 μg/mL in 50 μL of PBS was added to a 96-well immunoplate (Corning, USA) and then adsorbed by keeping at 4° C. overnight. After incubation for 1 hour at room temperature in a buffer containing 3% bovine serum albumin (Millipore, USA), followed by washing with a buffer containing 0.5% Tween 20 (Amresco, USA) three times, 50 μL of the serially diluted antibody (0.0001, 0.0003, 0.001, 0.003, 0.01, 0.03, 0.1, 0.3, 1, 3 and 10 nM) was treated per well. After incubation at room temperature for 2 hours for antibody-antigen binding, the antibody-antigen complex was washed three times with a buffer containing 0.5% Tween 20 (Amresco, USA). After treating with 50 μL of anti-human immunoglobulin Fc-HRP antibody (Jackson Immunoresearch, USA) diluted to 1:3,000 per well, followed by incubation at room temperature for 1 hour and washing three times with a buffer containing 0.5% Tween 20 (Amresco, USA), color development was conducted for 10 minutes by adding 50 μL of 3,3′,5,5′-tetramethylbenzidine (TMB) (ThermoFisher Scientific, USA).
The affinity of the antibodies screened in Example 6 for CD55 was investigated by indirect ELISA. The indirect ELISA was conducted in the same manner as in Example 3.
The affinity of the antibodies prepared in Example 8 for CD55 was investigated by indirect ELISA. The indirect ELISA was conducted in the same manner as in Example 3. […]
(ELISA stands for enzyme-linked immunosorbent assay.)

In test [4] the target is T2, recombinant human CD55 (R&D Systems …). Kind of test: indirect ELISA, recombinant human CD55 coated, anti-human Fc-HRP. As for the experimental part: as §3

Entries after “also recorded” stand apart in the source; their conditions may differ.

On to `COc1cc2ncnc(Nc3ccc(F)c(Cl)c3)c2cc1OCCCN1CCOCC1` [Gefitinib, gefitinib, reference compound], for which the induction of apoptosis entry is reported as “induced apoptosis” with PC9 NSCLC cells and “did not show the effect” in the test with PC9-GR cells (5 μg/mL gefitinib alone).
As for `Cc1ccc(NC(=O)c2ccc(CN3CCN(C)CC3)cc2)cc1Nc1nccc(-c2cccnc2)n1` [Imatinib, imatinib, reference compound], the induction of apoptosis entry in the test on K562 cells is listed as “induced apoptosis”; with K562-IR cells (2 μM imatinib alone) it was “did not show the effect”.
Consider rituximab [reference compound], for which the induction of apoptosis result is given as “the induction of apoptosis in the Ramos-RR cells was lower than in the Ramos cells” with Ramos-RR cells (rituximab alone) and “induced apoptosis” with Ramos cells. In [1] (20 μg/mL rituximab alone), the “response to rituximab (CDC, apoptotic cells)” value is given as “low response”.

B1: EP-10H (antibody, V domains shown)
VH: EVQLVESGGGLVQPGGSLRLSCAASGFTFSDRGMAWVRQAPGKGLEWVSGISSSGRYTYYAPAVKGRATISRDNSKNTLYLQMNSLRAEDTAVYYCAKNAVAGGWHAAYIDAWGQGTTVTVSS
VL: SYELTQPPSVSVSPGQTASITCSGGGGSYGWYQQKPGQSPVTVIYWNDKRPSGIPERFSGSKSGNTATLTISGTQAMDEADYYCGGWDSSTYAIFGGGTKLTVL
notes: Tested as full-length IgG; Differs from G4-1H only at the H100A site (G to V); also called EP-10H monoclonal antibody; EP-10H antibody
In the case of B1, the binding result in test [2] and in [3] was “binds” in each case.

B2: EP-10H: anti-CD55 antibody different from G4-1H only at the H100A site (G to V), VL SEQ ID NO 4, VH SEQ ID NO 19 (antibody, V domains shown)
VH: EVQLVESGGGLVQPGGSLRLSCAASGFTFSDRGMAWVRQAPGKGLEWVSGISSSGRYTYYAPAVKGRATISRDNSKNTLYLQMNSLRAEDTAVYYCAKNAVAGGWHAAYIDAWGQGTTVTVSS
VL: SYELTQPPSVSVSPGQTASITCSGGGGSYGWYQQKPGQSPVTVIYWNDKRPSGIPERFSGSKSGNTATLTISGTQAMDEADYYCGGWDSSTYAIFGGGTKLTVL
modifications: EP-1E_VH; G4-1H_VL
Consider B2, for which, in the test with recombinant human CD55, the “affinity for CD55 (indirect ELISA, absorbance at 450 nm)” value was “comparable affinity”. In addition, the “apoptosis by rituximab on co-administration with anti-CD55 antibody” value in the test on Ramos-RR cells (anti-CD55 antibody + rituximab) is reported as “increased apoptosis; also recorded: more significantly increased the apoptosis by rituximab as compared to the co-administration with 4-1H”. For the same molecule, the “apoptosis on co-administration with imatinib” value in the test with K562-IR cells (2 μM imatinib + 10 μg/mL anti-CD55 antibody) is “apoptosis was induced; also recorded: higher apoptotic effect than the co-administration of 4-1H and imatinib”. Moreover, in test [1] (50 μg/mL anti-CD55 antibody + 20 μg/mL rituximab), the “effect of rituximab (CDC, apoptotic cells) on co-administration with anti-CD55 antibody” value is “the effect was increased; also recorded: The increase was higher for a combination of rituximab and EP-10H than a combination of rituximab and 4-1H”. Further, in the test with PC9-GR cells (5 μg/mL gefitinib + 5 μg/mL anti-CD55 antibody), the “apoptosis on co-administration with gefitinib” value is “apoptosis was induced; also recorded: higher apoptotic effect than the co-administration of 4-1H and gefitinib”.

B3: G4-1H (antibody, V domains shown)
VH: EVQLVESGGGLVQPGGSLRLSCAASGFTFSDRGMAWVRQAPGKGLEWVSGISSSGRYTYYAPAVKGRATISRDNSKNTLYLQMNSLRAEDTAVYYCAKNAGAGGWHAAYIDAWGQGTTVTVSS
VL: SYELTQPPSVSVSPGQTASITCSGGGGSYGWYQQKPGQSPVTVIYWNDKRPSGIPERFSGSKSGNTATLTISGTQAMDEADYYCGGWDSSTYAIFGGGTKLTVL
notes: Tested as complete antibody (full-length IgG); also called humanized 4-1H antibody; G4-1H monoclonal antibody
For the molecule B3, the binding result in [4] is “binds”.

For the origin of these results see patent US20240141061A1, “NOVEL ANTIBODY AGAINST CD55 AND USE THEREOF” (SG MEDICAL INC, priority 2021, published 2024).
